Test results as given in EP4296276A1 (Forschungszentrum Jülich GmbH, dated 2023).
Ends that are not written are not given here.

T1: DISC1 C-region (residues 691-836) mutant S713E (human, UniProt Q9NRI5 691-836)
T1 construct: range 691-836; Expression and tag are described only for the WT construct (N-terminal His6)
T1 sequence (looked up): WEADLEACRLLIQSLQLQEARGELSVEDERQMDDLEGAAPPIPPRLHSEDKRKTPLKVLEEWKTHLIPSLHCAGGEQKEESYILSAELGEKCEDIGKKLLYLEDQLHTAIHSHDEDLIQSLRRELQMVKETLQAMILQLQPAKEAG

T2: DISC1 C-region (residues 691-836) mutant S704C (human, UniProt Q9NRI5 691-836)
T2 construct: range 691-836; Expression and tag are described only for the WT construct (N-terminal His6)
T2 sequence (looked up): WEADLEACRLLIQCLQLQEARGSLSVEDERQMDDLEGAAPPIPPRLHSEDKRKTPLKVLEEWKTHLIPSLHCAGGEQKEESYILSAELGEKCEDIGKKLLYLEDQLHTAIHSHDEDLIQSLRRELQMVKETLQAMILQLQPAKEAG

T3: wild-type (WT) human DISC1 C-region (residues 691-836) (human, UniProt Q9NRI5 691-836)
T3 construct: range 691-836; Expressed in E. coli as an N-terminal His6 fusion construct, purified on Co2+-NTA and by size exclusion; Used in solution at 2 µM in BLI; also called WT C-region; C-region of DISC1; not shown: N-terminal His6 fusion tag
T3 sequence (looked up): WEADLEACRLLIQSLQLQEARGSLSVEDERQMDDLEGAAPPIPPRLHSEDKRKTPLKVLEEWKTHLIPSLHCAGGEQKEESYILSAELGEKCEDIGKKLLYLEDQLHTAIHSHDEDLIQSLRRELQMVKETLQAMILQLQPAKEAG


Tests used:
Assay in all cases: BLI (Octet), peptide immobilised, protein 2 µM; KD = koff/kon
[1] = target: DISC1 C-region mutant L807-frameshift (human) (UniProt Q9NRI5)
[2] = target: T1, DISC1 C-region (residues 691-836) …
[3] = target: T2, DISC1 C-region (residues 691-836) …
[4] = target: T3, wild-type (WT) human DISC1 C-region …

Binder | Kd [1] | Kd [2] | Kd [3] | Kd [4]
SNWHPRHFFMSPSSPQ-NH2 [Flo6 (…-NH2)] | 0.17 µM | – | – | –
AWQHHELKWKQYQGWR-NH2 [Flm2 (…-NH2)] | 0.11 µM | – | – | –
FPHPTLKHREFMRHVS-NH2 (Phage display hit selected on oligomeric WT C-region; Immobilised on the BLI sensor by EDC/NHS coupling) [Flo1 (FPHPTLKHREFMRHVS-NH2)] | – | 0.07 µM | 0.16 µM | 0.1 µM
QDNPWWHEHKHWKSWP-NH2 [Flo5 (…-NH2)] | 0.27 µM | – | – | –
GIKSLISNKMHTQWNY-NH2 [Flm5 (…-NH2)] | 0.11 µM | – | – | –
WNHPMNIRSISWHKDS-NH2 (Phage display hit selected on monomeric WT C-region; Immobilised on the BLI sensor by EDC/NHS coupling) [Flm6 (WNHPMNIRSISWHKDS-NH2)] | – | 1.07 µM | 2.24 µM | 2.01 µM
GIKSLISNKMHTQWNY-NH2 (Phage display hit selected on monomeric WT C-region; Immobilised on the BLI sensor by EDC/NHS coupling) [Flm5 (GIKSLISNKMHTQWNY-NH2)] | – | 0.08 µM | 0.15 µM | 0.64 µM
HKLHHLLKWENQHKVE-NH2 (Phage display hit selected on monomeric WT C-region; Immobilised on the BLI sensor by EDC/NHS coupling) [Flm11 (HKLHHLLKWENQHKVE-NH2)] | – | 0.42 µM | 0.72 µM | 1.27 µM
TSGVPWWKFQQQVRRT-NH2 (Phage display hit selected on oligomeric WT C-region; Immobilised on the BLI sensor by EDC/NHS coupling) [Flo11 (TSGVPWWKFQQQVRRT-NH2)] | – | 0.89 µM | 1.06 µM | 3.68 µM
AWQHHELKWKQYQGWR-NH2 (Phage display hit selected on monomeric WT C-region; Immobilised on the BLI sensor by EDC/NHS coupling) [Flm2 (AWQHHELKWKQYQGWR-NH2)] | – | 0.22 µM | 0.15 µM | 0.64 µM
HISMQTYKWSQWAKHQ-NH2 [Flo3 (…-NH2)] | 0.4 µM | – | – | –
PWYNAPHSHGFWGSGR-NH2 [Flm9 (…-NH2)] | 0.39 µM | – | – | –
SNWHPRHFFMSPSSPQ-NH2 (Phage display hit selected on oligomeric WT C-region; Immobilised on the BLI sensor by EDC/NHS coupling) [Flo6 (SNWHPRHFFMSPSSPQ-NH2)] | – | 0.46 µM | 0.72 µM | 2.36 µM
HISMQTYKWSQWAKHQ-NH2 (Phage display hit selected on oligomeric WT C-region; Immobilised on the BLI sensor by EDC/NHS coupling) [Flo3 (HISMQTYKWSQWAKHQ-NH2)] | – | 0.42 µM | 0.27 µM | 2.62 µM
IWAGHIHDWWRRGQGS-NH2 (not fully specified; printed as IWAGHIHDWWRRGQGS-NH2, Phage display hit selected on monomeric WT C-region; Immobilised on the BLI sensor by EDC/NHS coupling) [Flm1 (IWAGHIHDWWRRGQGS-NH2)] | – | 0.08 µM | 0.08 µM | 0.15 µM
HKLHHLLKWENQHKVE-NH2 [Flm11 (…-NH2)] | 0.54 µM | – | – | –
QDNPWWHEHKHWKSWP-NH2 (Phage display hit selected on oligomeric WT C-region; Immobilised on the BLI sensor by EDC/NHS coupling) [Flo5 (QDNPWWHEHKHWKSWP-NH2)] | – | 0.21 µM | 0.36 µM | 0.25 µM
FPHPTLKHREFMRHVS-NH2 [Flo1 (…-NH2)] | 0.04 µM | – | – | –
PWYNAPHSHGFWGSGR-NH2 (Phage display hit selected on monomeric WT C-region; Immobilised on the BLI sensor by EDC/NHS coupling) [Flm9 (PWYNAPHSHGFWGSGR-NH2)] | – | 1.5 µM | 1.49 µM | 3.2 µM
WNHPMNIRSISWHKDS-NH2 [Flm6 (…-NH2)] | 0.53 µM | – | – | –
KYTAIHEWYKAHNGGA-NH2 [Flo8 (…-NH2)] | 0.17 µM | – | – | –
TSGVPWWKFQQQVRRT-NH2 [Flo11 (…-NH2)] | 0.16 µM | – | – | –
KYTAIHEWYKAHNGGA-NH2 (Phage display hit selected on oligomeric WT C-region; Immobilised on the BLI sensor by EDC/NHS coupling) [Flo8 (KYTAIHEWYKAHNGGA-NH2)] | – | 0.46 µM | 1.04 µM | 2.62 µM
IWAGHIHDWWRRGQGS-NH2 (not fully specified; printed as IWAGHIHDWWRRGQGS-NH2) [Flm1 (…-NH2)] | 0.2 µM | – | – | –
